Data from the supplement of paper PMC10201428.
± gives the standard deviation of the averaged measurements.

B1: library; a variant is named by its letters at N, in order (parent)
chain: AATGTTGTTGATGCAACCATAAAGTGATATTTAATAATTATTTATAATCAGCAACTTAACCACAAAACAACCATATATTGATATNTCACAAAACAACCATAANTTGATATTTTTGTGAATCGAGTATTTCAGCAAAACTACTGCAGTAAGAA

Key:
[1] = variants of: B1; assay: relative integration efficiency (T-LR orientation) vs wild-type transposon end (log2 (normalized fold change)); transposon end mutated: left end; higher = more efficient transposition; conditions: with VchCAST RNA-guided transposition machinery (E. coli BL21(DE3) host, lacZ target)
In short: (§1)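 Co-transformation of E. coli BL21(DE3) combined a pUC57 mini-transposon donor, holding barcoded pools of 1549 left-end or 1849 right-end variants, with a T7-driven plasmid encoding a CRISPR array, tniQ-cas8-cas7-cas6 and tnsA-tnsB-tnsC. After plating with 0.1 mM IPTG at 37°C for 18 h, input plasmids and genomic integration junctions were PCR-amplified and Illumina-sequenced across two biological output replicates, with four reference barcodes. Relative integration efficiency is the normalised, log-transformed output/input barcode fold change.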

[2] = variants of: B1; assay: relative integration efficiency (T-RL orientation) vs wild-type transposon end (log2 (normalized fold change)); transposon end mutated: left end; higher = more efficient transposition; conditions: with VchCAST RNA-guided transposition machinery (E. coli BL21(DE3) host, lacZ target)
In short: as §1

Row | Variant | relative integration efficiency (log2) [1] | relative integration efficiency (log2) [2]
1 | CG A34T | 0.848 ± 0.42 | 0.709 ± 0.11
2 | CG A34C | 0.459 ± 0.34 | 0.215 ± 0.064
3 | CG A34G | -0.187 ± 0.0028 | -0.0204 ± 0.046
4 | CG A77C T78G | 0.461 ± 0.32 | 0.644 ± 0.21
5 | CG A50C G51T | -0.407 ± 0.67 | -0.196 ± 0.22
6 | CG A88C C89A A90C A91C | -0.0905 ± 0.58 | -0.404 ± 0.32
7 | CG A81C T82G A83C T84G | -1.87 ± 0.22 | -1.9 ± 0.68
8 | CG A36G T42C A62G A65G A66C | -0.297 ± 0.32 | -0.575 ± 0.29
9 | CG A77T T78A T79A G80C | -3.86 ± 2.7 | -2.18 ± 0.89
10 | CG A77C | 0.611 ± 0.89 | 0.337 ± 0.052
11 | CG A77G | 0.0745 ± 0.45 | -0.243 ± 0.024
12 | CG A77T | -0.192 ± 0.066 | -0.217 ± 0.059
13 | CG A23T | 0.0168 ± 0.12 | 0.086 ± 0.23
14 | CG A58T A59T C60G C61G | -0.383 ± 0.24 | -0.275 ± 0.27
15 | CG A67C C68A | -0.165 ± 0.81 | -0.108 ± 0.25
16 | CG A70C | 0.268 ± 0.068 | 0.0994 ± 0.073
17 | CG A70T | -0.297 ± 0.68 | -0.12 ± 0.26
18 | CG A70G | -0.515 ± 0.21 | -0.664 ± 0.41
19 | CG A33C C87A T113G | 0.0172 ± 0.12 | -0.0603 ± 0.021

Row | Variant | relative integration efficiency (log2) [1] | relative integration efficiency (log2) [2]
20 | CG A59T C60G C61G A62T | 0.314 ± 0.15 | 0.00645 ± 0.092
21 | CG A75T T76A | -0.104 ± 0.2 | -0.129 ± 0.13
22 | CG A29T T30A T31A T32A | -0.245 ± 0.11 | -0.49 ± 0.46
23 | CG A37T T38A T39A A40T | 0.186 ± 0.28 | 0.137 ± 0.049
24 | CG A34T A36G A37T T38G T39A A40G T41C T42G T43G T48C C49A | -2.77 ± 0.75 | -2.86 ± 0.81
25 | CG A53C A54C | 0.297 ± 0.47 | 0.0858 ± 0.13
26 | CG A44C T45G | 0.0152 ± 0.65 | -0.0735 ± 0.14
27 | CG A36G A65G A66C | -0.205 ± 0.26 | -0.491 ± 0.18
28 | TG A23G G24T A33T T76A T78G C87A | 0.632 ± 0.11 | 0.16 ± 0.09
29 | CG A27C A81C A107C | -1.49 ± 1.6 | -1.32 ± 0.78
30 | CG A90C A91C | -0.406 ± 0.87 | -0.15 ± 0.34
31 | CG A67T C68G A69T A70T | -1.78 ± 0.54 | -1.55 ± 0.73
32 | CG A62G | 0.446 ± 0.39 | 0.318 ± 0.17
33 | CG A62T | 1.22 ± 0.39 | 1.17 ± 0.29
34 | CG A62C | 0.284 ± 0.025 | -0.0795 ± 0.022
35 | CG A27T T28A | -0.61 ± 0.9 | -0.441 ± 0.66
36 | CG A44T T45A | 0.734 ± 0.13 | 0.214 ± 0.11
37 | CG A73C T74G | -2.3 ± 0.72 | -2.37 ± 0.86
38 | CG A47C T48G | -0.613 ± 0.46 | -0.656 ± 0.35

Row | Variant | relative integration efficiency (log2) [1] | relative integration efficiency (log2) [2]
39 | CG A81T | -0.4 ± 0.15 | -0.396 ± 0.57
40 | CG A81C | -0.551 ± 0.4 | -0.479 ± 0.28
41 | CG A81G | -0.37 ± 0.32 | -0.449 ± 0.27
42 | CG A46T A47T T48A C49G | 0.192 ± 0.37 | 0.00752 ± 0.28
43 | CG A34T T35A A36T A37T | 0.329 ± 0.44 | 0.189 ± 0.094
44 | CG A27C T28G A29C T30G | -2.34 ± 1.1 | -2.43 ± 0.93
45 | CG A36T A37T | 0.375 ± 0.21 | 0.0996 ± 0.091
46 | CG A69T A70T C71G C72G | -1.93 ± 1.4 | -1.77 ± 0.77
47 | CG A81C T82G | -1.43 ± 0.033 | -0.963 ± 0.26
48 | CG A65C A66C | 0.318 ± 0.48 | 0.0588 ± 0.077
49 | CG A46C A47C T48G C49A | -2.09 ± 0.25 | -1.44 ± 0.53
50 | CG A50T G51C | -1.59 ± 0.97 | -0.729 ± 0.46
51 | CG A34C T35C A36G T38C A40G T42C A44G T45C A46C A53C A62G A65G A66C | -1.83 ± 0.73 | -1.68 ± 0.71
52 | CG A69T A70T | -0.797 ± 0.57 | -0.395 ± 0.4
53 | CG A37T | 0.0565 ± 0.29 | -0.0666 ± 0.052
54 | CG A37C | 0.0561 ± 0.13 | -0.222 ± 0.0095
55 | CG A37G | 0.434 ± 0.033 | 0.146 ± 0.027
56 | CG A62T C63G A64T A65T | 0.238 ± 0.12 | 0.339 ± 0.046
57 | CG A58C A59C C60A C61A | 0.829 ± 0.17 | 1.06 ± 0.036
